Results as given in patent US20160237160A1 (Bayer, published 2016).
Values belong to the binder of their own block, whether it stands above or below them.

Key:
[1] = target: T1, TPP-2614 (TweakR-ECD-34-68-hIgGFc-His-D47A) (human); assay: ELISA, PDL-192(TPP-1104) coated at 1 µg/ml, eight-fold diluted HEK293 supernatant with the TWEAKR(34-68)-Fc mutein, anti-HIS-HRP, Amplex Red
T1 construct: also called D47A TWEAKR mutein
Experimental: S37A, R38A, S40A, W42A, S43A, D45A, D47A, K48A, D51A, S54A, R56A, R58A, P59A, H60A, S61A, D62A, F63A and L65A muteins were expressed in HEK293 cells (black diamonds).
These TWEAKR(34-68)-Fc muteins were expressed in HEK293 cells. To collect dose-response data, IgGs were coated at a concentration of 1 μg/ml in a 384-well Maxisorp ELISA plate and a serial 2fold dilution of the TWEAKR mutein containing supernatant was used as soluble binding partner. Detection was done with anti-HIS-HRP and Amplex Red.

[2] = target: TPP-1988 (hTNFRSF12Aaa28-80-M50A-hIgG1-Fc) (human); assay: ELISA, TWEAKR-Fc coated 62 ng/ml, biotin-IgG titrated; + means IC50 1 to 150 pM;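 note: biotinylated IgG binding to immobilized TWEAKR-Fc muteins, detected with Streptavidin-HRP and Amplex Red, IC50 derived from fitted dose-response curves of twofold serial dilutions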
Experimental: (§1) To collect dose-response data, the different TWEAKR-Fc muteins were coated with a low concentration (62 ng/ml) in a 384-well Maxisorb ELISA plate and a serial 2fold dilution of biotinylated IgG starting with a concentration of 100 nM was used as soluble binding partner. Detection was done with Streptavidin-HRP and Amplex Red.
(§2) The dose-response data were fitted and IC50s determined.

[3] = target: T2, TWEAKR (TNFRSF12A, FN14), human, on tumor cell lines (human, UniProt Q9NP84 28-129); assay: cell-based or functional assay
[4] = target: T1, TPP-2614 …; assay: ELISA, IgG coated 1 ug/ml, TWEAKR variant 250 ng/ml, anti-HIS HRP (FIG. 6C)
Experimental: Antibodies were coated (1 μg/ml), TWEAKR variant was added at 250 ng/ml, detection via anti-HIS HRP. […] Antibodies were coated (1 μg/ml), TWEAKR variant was added 250 ng/ml, detection via anti-HIS HRP.

[5] = target: T2, TWEAKR (TNFRSF12A, FN14), human, on …; assay: FACS, NCI-H322 cells, 10 ug/ml
Experimental: (§3) To determine the binding characteristics of the anti-TWEAKR antibodies on mouse and human cancer cell lines, binding was tested by flow cytometry to a panel of cell lines. […] Cells were suspended at approximately 10⁵ cells/well in FACS buffer (PBS without Ca/Mg, containing 3% FCS, Biochrom). Cells were centrifuged (250 g, 5 min, 4° C.) and supernatant discarded. Cells were resuspended in dilutions of the antibodies of interest (10 μg/ml in 80 μl if not indicated otherwise) in FACS buffer, and incubated on ice for 1 h. […] After incubation for 1 h on ice cells were again washed with cold FACS buffer, resuspended in 1000 FACS buffer and analyzed by flow cytometry using a FACS-Array (BD Biosciences). Results are calculated as Geo Mean of fluorescence detected by the antibody of interest subtracted by background fluorescence as measured by detection with the secondary antibody alone. Values are scored according to the following system: Geo Mean−Geo Mean of secondary antibody alone >10: +, >100: ++, >1000: +++, 10000: ++++, close to category border in ( ).

[6] = target: T2, TWEAKR (TNFRSF12A, FN14), human, on …; assay: cell-based or functional assay; remark: listed apart in the source
[7] = target: T2, TWEAKR (TNFRSF12A, FN14), human, on …; assay: FACS, A375 cells, 10 ug/ml
Experimental: as §3

[8] = target: T2, TWEAKR (TNFRSF12A, FN14), human, on …; assay: FACS, SKOV-3 cells, 10 ug/ml
[9] = target: TPP-2683 (hTNFRSF12Aaa28-80-R56P-hIgG1-Fc) (human); assay: ELISA, TWEAKR-Fc coated 62 ng/ml, biotin-IgG titrated; + means IC50 1 to 150 pM;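 note: biotinylated IgG binding to immobilized TWEAKR-Fc muteins, detected with Streptavidin-HRP and Amplex Red, IC50 derived from fitted dose-response curves of twofold serial dilutions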
Experimental: as §1, §2

[10] = target: TPP-1986 (hTNFRSF12Aaa28-80-T33Q-hIgG1-Fc) (human); assay: as above
Experimental: as §1, §2

[11] = target: TPP-1987 (hTNFRSF12Aaa28-80-S40R-hIgG1-Fc) (human); assay: as above
Experimental: as §1, §2

[12] = target: TPP-1990 (hTNFRSF12Aaa28-80-L65Q-hIgG1-Fc) (human); assay: as above
Experimental: as §1, §2

[13] = target: TPP-1989 (hTNFRSF12Aaa28-80-H60K-hIgG1-Fc) (human); assay: as above
Experimental: as §1, §2

[14] = target: T3, TPP-1984 (hTNFRSF12Aaa28-68-CT-His) (human); assay: ELISA, TPP-1984 coated at 1 µg/ml, biotinylated IgG at 0.08 µg/ml (open bar) and 0.3 µg/ml (filled bar), Streptavidin-HRP, Amplex Red
T3 construct: monomeric ectodomain with HIS6 tag; also called TWEAKR(28-68)-HIS; C-terminally truncated TWEAKR ectodomain
T3 chain: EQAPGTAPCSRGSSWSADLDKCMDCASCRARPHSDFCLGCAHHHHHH
Experimental: (§4) Detection was done with Streptavidin-HRP and Amplex-Red substrate.
(§5) To analyze for binding, 1 μg/ml of the respective dimeric TWEAKR-Fc construct were coated and, 0.3 μg/ml and 0.08 μg/ml of biotinylated IgG were used as soluble binding partner. Detection was done with Streptavidin-HRP and Amplex-Red substrate.

[15] = target: T2, TWEAKR (TNFRSF12A, FN14), human, on …; assay: FACS, WiDr cells, 10 ug/ml
[16] = target: T4, TPP-2202 (TWEAKR-ECD-28-80-hIgGFc-His) (human); assay: ELISA, TPP-2202 coated at 1 µg/ml, biotinylated IgG at 0.08 µg/ml (open bar) and 0.3 µg/ml (filled bar), Streptavidin-HRP, Amplex Red
T4 construct: dimeric; also called TWEAKR-Fc fusion protein; full ectodomain 28-80
Experimental: as §4, §5

[17] = target: T5, TPP-2203 (TWEAKR-ECD-34-68-hIgGFc-His) (human); assay: ELISA, TPP-2203 coated at 1 µg/ml, biotinylated IgG at 0.08 µg/ml (open bar) and 0.3 µg/ml (filled bar), Streptavidin-HRP, Amplex Red
T5 construct: dimeric; also called TWEAKR(34-68)-Fc fusion protein; truncated ectodomain 34-68
Experimental: as §4, §5

[18] = target: T6, TPP-1777 (DOG-TNFRSF12Aaa28-80-hIgG1-Fc) (dog); assay: SPR, TWEAKR-Fc immobilized, IgG injected, bivalent analyte model (avidity mode);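 note: kd derived as the ratio of fitted dissociation to association rate constants, with sensorgrams corrected against a reference flow cell and a buffer blank before fitting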
T6 construct: bivalent antigen; also called dog TWEAKR Fc
Experimental: (§6) Sensorgrams were generated after in-line reference cell correction followed by buffer sample subtraction. The dissociation equilibrium constant (KD) was calculated based on the ratio of association (kₒₙ₁) and dissociation rated (koff1) constants, obtained by fitting sensorgrams with a bivalent analyte model using Biavaluation Software (version 4.0).

[19] = target: T7, TPP-1778 (PIG-TNFRSF12Aaa28-80-hIgG1-Fc) (pig); assay: as above
T7 construct: bivalent antigen; also called pig TWEAKR Fc
Experimental: as §6

[20] = target: T8, TPP-599 (HUMAN-TNFRSF12Aaa28-80-hIgG1-Fc) (human); assay: as above
T8 construct: dimeric; also called human TWEAKR Fc; TWEAKR-Fc
Experimental: as §6

[21] = target: T9, TPP-1846 (MAC-TNFRSF12Aaa28-80-hIgG1-Fc) (macaca fascicularis); assay: as above
T9 construct: bivalent antigen; also called mac fasc TWEAKR Fc
Experimental: as §6

[22] = target: T10, TPP-1779 (RAT-TNFRSF12Aaa28-80-hIgG1-Fc) (rat); assay: as above
T10 construct: bivalent antigen; also called rat TWEAKR Fc
Experimental: as §6

[23] = target: T11, TPP-601 (MURINE-TNFRSF12Aaa28-80-hIgG1-Fc) (murine); assay: as above
T11 construct: dimeric; also called murine TWEAKR Fc
Experimental: as §6

[24] = target: T12, TPP-2305 (hTNFRSF12Aaa28-80) (Human, UniProt Q9NP84 28-80); assay: SPR (Biacore T100), IgG captured, TPP-2305 injected, 1:1 model
T12 construct: monomeric extracellular domain, bought; also called purified recombinant human TWEAKR protein; soluble monomeric TWEAKR
Experimental: Binding affinities of anti-TWEAKR antibodies were determined by surface plasmon resonance analysis on a Biacore T100 instrument (GE Healthcare Biacore, Inc.). Antibodies were immobilized onto a CM5 sensor chip through an indirect capturing reagent, anti-human IgG(Fc). […] Anti-TWEAKR antibodies were injected at a concentration of 10 μg/ml at 10 μl/min for 10 sec.
Sensorgrams were generated after in-line reference cell correction followed by buffer sample subtraction. The dissociation equilibrium constant (KD) was calculated based on the ratio of association (kₒₙ) and dissociation rated (koff) constants, obtained by fitting sensorgrams with a first order 1:1 binding model.

[25] = target: T2, TWEAKR (TNFRSF12A, FN14), human, on …; assay: FACS, 786-O cells, 10 ug/ml
Experimental: as §3

[26] = target: T2, TWEAKR (TNFRSF12A, FN14), human, on …; assay: FACS, HT29 cells, 10 ug/ml
Experimental: as §3

[27] = target: T2, TWEAKR (TNFRSF12A, FN14), human, on …; assay: cell-based or functional assay; remark: listed apart in the source
[28] = target: T8, TPP-599 …; assay: ELISA, 2.5 nM biotinylated TWEAKR-Fc coated, soluble Fab, anti-c-Myc detection

- binding result [1]: binds
- binding result [2]: binds
B1: PDL-192(TPP-1104) (antibody, human IgG1, kappa, V domains shown)
VH: QVELVESGGGLVQPGGSLRLSCAASGFTFSSYWMSWVRQAPGKGLEWVAEIRLKSDNYATHYAESVKGRFTISRDDSKNSLYLQMNSLRAEDTAVYYCTGYYADAMDYWGQGTLVTVSS
VL: DIQMTQSPSSLSASVGDRVTITCRASQSVSTSSYSYMHWYQQKPGKAPKLLIKYASNLESGVPSRFSGSGSGTDFTLTISSLQPEDFATYYCQHSWEIPYTFGGGTKVEIKR
notes: Human IgG1; variable domains from WO2009/020933 with constant region added

- IL-8 release from A375 cells at 100 ug/ml, % of the activation by 300 ng/ml TWEAK ligand [3]: 113%
- % binding normalized by wt binding signal [4]: < 5%
- GeoMean of Fluorescence minus GeoMean with the secondary antibody only [5]: 126
- Fold induction of Caspase 3/7, 786-O cells, 100 ug/ml [6]: 1.61 fold
- Fold induction of Caspase 3/7, A253 cells, 100 ug/ml [6]: 1.6 fold
- Fold induction of Caspase 3/7, HT-29 cells, 100 ug/ml [6]: 2.59 fold
- Fold induction of Caspase 3/7, NCI-H322 cells, 100 ug/ml [6]: 1.58 fold
- GeoMean of Fluorescence minus GeoMean with the secondary antibody only [7]: 199
- GeoMean of Fluorescence minus GeoMean with the secondary antibody only [8]: 1660
- binding result [9]: binds
- binding result [10]: binds
- binding result [11]: binds
- binding result [12]: binds
- binding result [13]: binds
- binding result [2]: binds
- binding result [14]: binds
- GeoMean of Fluorescence minus GeoMean with the secondary antibody only [15]: 1350
- binding result [16]: binds
- binding result [17]: binds
- Kd [18]: 17 nM
- Kd [19]: 34.2 nM
- Kd [20]: 16.2 nM
- Kd [21]: 23.8 nM
- Kd [22]: 21.1 nM
- Kd [23]: 4 nM
- Kd [24]: 27.6 nM
- koff [24]: 0.11 s⁻¹
- kon [24]: 4.2e+06 M⁻¹ s⁻¹
- GeoMean of Fluorescence minus GeoMean with the secondary antibody only [25]: 16300
- GeoMean of Fluorescence minus GeoMean with the secondary antibody only [26]: 750
- % Inhibition of proliferation, 786-O cells, 96h, 100 ug/ml [27]: 68%
- % Inhibition of proliferation, A253 cells, 72h, 100 ug/ml [27]: > 100%
- % Inhibition of proliferation, HT-29 cells, 24h, 100 ug/ml [27]: 98%
- % Inhibition of proliferation, WiDr cells, 96h, 100 ug/ml [27]: 52%
B2: TPP-2084 (antibody, human IgG1, kappa, V domains shown)
VH: EVQLLESGGGLVQPGGSLRLSCAASGFTFSPYPMMWVRQAPGKGLEWVSYISPSGGSTHYADSVKGRFTISRDNSKNTLYLQMNSLRAEDTAVYYCARGGDTYFDYFDYWGQGTLVTVSS
VL: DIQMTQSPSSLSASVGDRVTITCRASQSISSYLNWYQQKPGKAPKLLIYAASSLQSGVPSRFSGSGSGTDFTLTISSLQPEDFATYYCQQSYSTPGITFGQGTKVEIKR
notes: Human IgG1

- binding result [28]: binds
B3: TPP-883 Fab variant S94T of CDR-L3 (Fab, V domains shown)
VH: EVQLLESGGGLVQPGGSLRLSCAASGFTFSPYPMMWVRQAPGKGLEWVSYISPSGGKTHYADSVKGRFTISRDNSKNTLYLQMNSLRAEDTAVYYCARGGDGYFDYFDYWGQGTLVTVSS
VL: DIQMTQSPATLSASVGDRVTITCRASQSISSYLNWYQQKPGKAPKLLIYAASSLQSGVPSRFSGSGSGTDFTLTISSLQPEDFATYYCQQSYTSPGITFGPGTKVEIK

- binding result [28]: binds
B4: TPP-883 Fab variant A51Q of CDR-L2 (Fab, V domains shown)
VH: EVQLLESGGGLVQPGGSLRLSCAASGFTFSPYPMMWVRQAPGKGLEWVSYISPSGGKTHYADSVKGRFTISRDNSKNTLYLQMNSLRAEDTAVYYCARGGDGYFDYFDYWGQGTLVTVSS
VL: DIQMTQSPATLSASVGDRVTITCRASQSISSYLNWYQQKPGKAPKLLIYQASSLQSGVPSRFSGSGSGTDFTLTISSLQPEDFATYYCQQSYSSPGITFGPGTKVEIK

- binding result [28]: binds
B5: TPP-883 Fab variant G97F of CDR-L3 (Fab, V domains shown)
VH: EVQLLESGGGLVQPGGSLRLSCAASGFTFSPYPMMWVRQAPGKGLEWVSYISPSGGKTHYADSVKGRFTISRDNSKNTLYLQMNSLRAEDTAVYYCARGGDGYFDYFDYWGQGTLVTVSS
VL: DIQMTQSPATLSASVGDRVTITCRASQSISSYLNWYQQKPGKAPKLLIYAASSLQSGVPSRFSGSGSGTDFTLTISSLQPEDFATYYCQQSYSSPFITFGPGTKVEIK
